5 molecules from patent US20140087995A1 (published 2014) can be followed below.

Test [1] concerns the target T1, human amylin 3(a) receptor (human calcitonin receptor plus RAMP-3) (human, UniProt P30988 25-474; O60896 24-148, limits assumed).
T1 sequence (looked up) 1: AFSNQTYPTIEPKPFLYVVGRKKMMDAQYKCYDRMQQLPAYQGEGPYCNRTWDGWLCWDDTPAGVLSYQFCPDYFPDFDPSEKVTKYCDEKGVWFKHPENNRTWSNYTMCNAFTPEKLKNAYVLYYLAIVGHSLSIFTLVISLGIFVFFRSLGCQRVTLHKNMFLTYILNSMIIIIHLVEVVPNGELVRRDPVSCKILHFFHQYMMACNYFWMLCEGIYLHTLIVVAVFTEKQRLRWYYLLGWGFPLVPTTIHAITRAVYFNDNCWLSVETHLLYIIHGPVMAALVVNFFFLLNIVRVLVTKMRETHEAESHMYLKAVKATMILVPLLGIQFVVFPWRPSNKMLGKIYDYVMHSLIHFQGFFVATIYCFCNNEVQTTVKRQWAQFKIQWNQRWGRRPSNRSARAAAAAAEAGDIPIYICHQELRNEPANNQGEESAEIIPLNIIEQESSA
T1 sequence (looked up) 2: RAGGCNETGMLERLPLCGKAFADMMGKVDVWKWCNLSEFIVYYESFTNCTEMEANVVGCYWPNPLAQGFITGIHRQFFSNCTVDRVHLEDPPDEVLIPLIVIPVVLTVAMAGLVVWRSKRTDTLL
Nature of the test: cell-based or functional assay.

Test [2] concerns the target T2, human calcitonin receptor (human, UniProt P30988 25-474).
T2 sequence (looked up): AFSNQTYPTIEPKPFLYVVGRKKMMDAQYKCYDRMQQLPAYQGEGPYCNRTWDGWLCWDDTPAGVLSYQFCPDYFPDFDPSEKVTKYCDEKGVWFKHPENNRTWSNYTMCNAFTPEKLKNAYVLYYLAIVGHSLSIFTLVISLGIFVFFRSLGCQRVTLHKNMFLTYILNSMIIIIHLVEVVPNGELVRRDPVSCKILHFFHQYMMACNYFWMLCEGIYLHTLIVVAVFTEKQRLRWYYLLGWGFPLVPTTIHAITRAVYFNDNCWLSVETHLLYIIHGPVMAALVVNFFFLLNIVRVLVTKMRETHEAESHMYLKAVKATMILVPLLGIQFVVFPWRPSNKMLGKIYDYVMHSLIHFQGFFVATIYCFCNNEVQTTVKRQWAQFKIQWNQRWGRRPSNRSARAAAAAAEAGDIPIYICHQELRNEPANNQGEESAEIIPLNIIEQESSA
The test is described as follows: cell-based or functional assay.

The target of test [3] is T1, human amylin 3(a) receptor (human …). Nature of the test: SPA competition binding, displacement of 125I-rat amylin from membranes of Amylin 3(a)/CRE-luc BHK cells (Assay V). Put shortly:
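SPA beads + BHK amylin 3(a)/CRE-luc membranes, 35 ng/μL final; buffer 50 mM Hepes pH 7.4, 1 mM CaCl2, 5 mM MgCl₂, 0.1% OA, 0.02% Tween20. 120 min, 25° C, shaken; scintillation count. IC₅₀ by one-site binding competition fit, taken as receptor affinity.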
For orientation: In a radioligand displacement assay an active substance lowers the binding of a labelled ligand.

Numbered stars: 1 amine (or outer) side, 2 acyl side, 3 side chain; on linkers, the order of the positions; unused ones are H or OH. Bridge positions count the residues as written; N and C are the ends. Side chains are listed from the residue outwards. Ends that are not written are not given here. * marks the point of attachment. C20 diacid = O=C(O)CCCCCCCCCCCCCCCCCCC(=O)*; γGlu = O=C(O)[C@H](CCC(=O)[*:2])N[*:1]

B1: N^α1N^α1-[(4S)-4-carboxy-4-(19-carboxynonadecanoylamino)butanoyl]-[Glu14,Arg17,Pro21,Pro27,Glu35]-h-amylin (peptide)
peptide: {C20 diacid-γGlu}-KCNTATCATQRLAEFLRHSSPNFGAIPSSTNVGSETY-NH2
modifications: disulfide 2-7
SMILES: CC[C@H](C)[C@H](NC(=O)[C@H](C)NC(=O)CNC(=O)[C@H](Cc1ccccc1)NC(=O)[C@H](CC(N)=O)NC(=O)[C@@H]1CCCN1C(=O)[C@H](CO)NC(=O)[C@H](CO)NC(=O)[C@H](Cc1c[nH]cn1)NC(=O)[C@H](CCCNC(=N)N)NC(=O)[C@H](CC(C)C)NC(=O)[C@H](Cc1ccccc1)NC(=O)[C@H](CCC(=O)O)NC(=O)[C@H](C)NC(=O)[C@H](CC(C)C)NC(=O)[C@H](CCCNC(=N)N)NC(=O)[C@H](CCC(N)=O)NC(=O)[C@@H](NC(=O)[C@H](C)NC(=O)[C@@H]1CSSC[C@H](NC(=O)[C@H](CCCCN)NC(=O)CC[C@H](NC(=O)CCCCCCCCCCCCCCCCCCC(=O)O)C(=O)O)C(=O)N[C@@H](CC(N)=O)C(=O)N[C@@H]([C@@H](C)O)C(=O)N[C@@H](C)C(=O)N[C@@H]([C@@H](C)O)C(=O)N1)[C@@H](C)O)C(=O)N1CCC[C@H]1C(=O)N[C@@H](CO)C(=O)N[C@@H](CO)C(=O)N[C@H](C(=O)N[C@@H](CC(N)=O)C(=O)N[C@H](C(=O)NCC(=O)N[C@@H](CO)C(=O)N[C@@H](CCC(=O)O)C(=O)N[C@H](C(=O)N[C@@H](Cc1ccc(O)cc1)C(N)=O)[C@@H](C)O)C(C)C)[C@@H](C)O
notes: also called compound 22
As to B1, in test [1], the “Ratio hCT/hAmylin funct.” value was 3.8 and the “hAmylin-R funct. EC50” value came out at 0.27 nM. In addition, the “hCTR funct. EC50” value in test [2] came out at 1.03 nM. In addition, the IC50 in test [3] worked out at 0.794 nM.

B2: N^ε1-[(4S)-4-carboxy-4-(19-carboxynonadecanoylamino)butanoyl]-[Glu14,Arg17,Pro21,Pro27,Arg34,Glu35]-h-amylin (peptide)
peptide: K([γGlu-C20 diacid])CNTATCATQRLAEFLRHSSPNFGAIPSSTNVGRETY-NH2
modifications: disulfide 2-7; N-terminus assumed
SMILES: CC[C@H](C)[C@H](NC(=O)[C@H](C)NC(=O)CNC(=O)[C@H](Cc1ccccc1)NC(=O)[C@H](CC(N)=O)NC(=O)[C@@H]1CCCN1C(=O)[C@H](CO)NC(=O)[C@H](CO)NC(=O)[C@H](Cc1c[nH]cn1)NC(=O)[C@H](CCCNC(=N)N)NC(=O)[C@H](CC(C)C)NC(=O)[C@H](Cc1ccccc1)NC(=O)[C@H](CCC(=O)O)NC(=O)[C@H](C)NC(=O)[C@H](CC(C)C)NC(=O)[C@H](CCCNC(=N)N)NC(=O)[C@H](CCC(N)=O)NC(=O)[C@@H](NC(=O)[C@H](C)NC(=O)[C@@H]1CSSC[C@H](NC(=O)[C@@H](N)CCCCNC(=O)CC[C@H](NC(=O)CCCCCCCCCCCCCCCCCCC(=O)O)C(=O)O)C(=O)N[C@@H](CC(N)=O)C(=O)N[C@@H]([C@@H](C)O)C(=O)N[C@@H](C)C(=O)N[C@@H]([C@@H](C)O)C(=O)N1)[C@@H](C)O)C(=O)N1CCC[C@H]1C(=O)N[C@@H](CO)C(=O)N[C@@H](CO)C(=O)N[C@H](C(=O)N[C@@H](CC(N)=O)C(=O)N[C@H](C(=O)NCC(=O)N[C@@H](CCCNC(=N)N)C(=O)N[C@@H](CCC(=O)O)C(=O)N[C@H](C(=O)N[C@@H](Cc1ccc(O)cc1)C(N)=O)[C@@H](C)O)C(C)C)[C@@H](C)O
For the molecule B2, in test [1], the “Ratio hCT/hAmylin funct.” value came to 6.5 and the “hAmylin-R funct. EC50” value worked out at 0.421 nM. Moreover, the “hCTR funct. EC50” value in test [2] worked out at 2.75 nM. The IC50 in test [3] turned out to be 0.232 nM.

B3: N^ε1-[(4S)-4-carboxy-4-(19-carboxynonadecanoylamino)butanoyl]-[Glu14,Arg17,Pro21,Pro27,His34,Glu35]-h-amylin (peptide)
peptide: K([γGlu-C20 diacid])CNTATCATQRLAEFLRHSSPNFGAIPSSTNVGHETY-NH2
modifications: disulfide 2-7; N-terminus assumed
SMILES: CC[C@H](C)[C@H](NC(=O)[C@H](C)NC(=O)CNC(=O)[C@H](Cc1ccccc1)NC(=O)[C@H](CC(N)=O)NC(=O)[C@@H]1CCCN1C(=O)[C@H](CO)NC(=O)[C@H](CO)NC(=O)[C@H](Cc1c[nH]cn1)NC(=O)[C@H](CCCNC(=N)N)NC(=O)[C@H](CC(C)C)NC(=O)[C@H](Cc1ccccc1)NC(=O)[C@H](CCC(=O)O)NC(=O)[C@H](C)NC(=O)[C@H](CC(C)C)NC(=O)[C@H](CCCNC(=N)N)NC(=O)[C@H](CCC(N)=O)NC(=O)[C@@H](NC(=O)[C@H](C)NC(=O)[C@@H]1CSSC[C@H](NC(=O)[C@@H](N)CCCCNC(=O)CC[C@H](NC(=O)CCCCCCCCCCCCCCCCCCC(=O)O)C(=O)O)C(=O)N[C@@H](CC(N)=O)C(=O)N[C@@H]([C@@H](C)O)C(=O)N[C@@H](C)C(=O)N[C@@H]([C@@H](C)O)C(=O)N1)[C@@H](C)O)C(=O)N1CCC[C@H]1C(=O)N[C@@H](CO)C(=O)N[C@@H](CO)C(=O)N[C@H](C(=O)N[C@@H](CC(N)=O)C(=O)N[C@H](C(=O)NCC(=O)N[C@@H](Cc1c[nH]cn1)C(=O)N[C@@H](CCC(=O)O)C(=O)N[C@H](C(=O)N[C@@H](Cc1ccc(O)cc1)C(N)=O)[C@@H](C)O)C(C)C)[C@@H](C)O
notes: also called compound 107
With B3, in test [1], the “Ratio hCT/hAmylin funct.” value was determined as 6.3 and the “hAmylin-R funct. EC50” value came out at 0.405 nM. Further, the “hCTR funct. EC50” value in test [2] was found to be 2.54 nM. Further, in test [3], the IC50 worked out at 0.387 nM.

B4: N^ε1-[(4S)-4-carboxy-4-(19-carboxynonadecanoylamino)butanoyl]-[Glu14,Arg17,Pro21,Pro27,Pro34,Arg35]-h-amylin (peptide)
peptide: K([γGlu-C20 diacid])CNTATCATQRLAEFLRHSSPNFGAIPSSTNVGPRTY-NH2
modifications: disulfide 2-7; N-terminus assumed
SMILES: CC[C@H](C)[C@H](NC(=O)[C@H](C)NC(=O)CNC(=O)[C@H](Cc1ccccc1)NC(=O)[C@H](CC(N)=O)NC(=O)[C@@H]1CCCN1C(=O)[C@H](CO)NC(=O)[C@H](CO)NC(=O)[C@H](Cc1c[nH]cn1)NC(=O)[C@H](CCCNC(=N)N)NC(=O)[C@H](CC(C)C)NC(=O)[C@H](Cc1ccccc1)NC(=O)[C@H](CCC(=O)O)NC(=O)[C@H](C)NC(=O)[C@H](CC(C)C)NC(=O)[C@H](CCCNC(=N)N)NC(=O)[C@H](CCC(N)=O)NC(=O)[C@@H](NC(=O)[C@H](C)NC(=O)[C@@H]1CSSC[C@H](NC(=O)[C@@H](N)CCCCNC(=O)CC[C@H](NC(=O)CCCCCCCCCCCCCCCCCCC(=O)O)C(=O)O)C(=O)N[C@@H](CC(N)=O)C(=O)N[C@@H]([C@@H](C)O)C(=O)N[C@@H](C)C(=O)N[C@@H]([C@@H](C)O)C(=O)N1)[C@@H](C)O)C(=O)N1CCC[C@H]1C(=O)N[C@@H](CO)C(=O)N[C@@H](CO)C(=O)N[C@H](C(=O)N[C@@H](CC(N)=O)C(=O)N[C@H](C(=O)NCC(=O)N1CCC[C@H]1C(=O)N[C@@H](CCCNC(=N)N)C(=O)N[C@H](C(=O)N[C@@H](Cc1ccc(O)cc1)C(N)=O)[C@@H](C)O)C(C)C)[C@@H](C)O
Regarding B4, in test [1], the “hAmylin-R funct. EC50” value was found to be 0.376 nM. Besides, the “hCTR funct. EC50” value in test [2] was found to be 6.38 nM. In test [3], the IC50 was determined as 0.163 nM.

B5: N^ε1-[(4S)-4-carboxy-4-(19-carboxynonadecanoylamino)butanoyl]-[Glu14,Arg17,Pro21,Pro27,Arg35]-h-amylin (peptide)
peptide: K([γGlu-C20 diacid])CNTATCATQRLAEFLRHSSPNFGAIPSSTNVGSRTY-NH2
modifications: disulfide 2-7; N-terminus assumed
SMILES: CC[C@H](C)[C@H](NC(=O)[C@H](C)NC(=O)CNC(=O)[C@H](Cc1ccccc1)NC(=O)[C@H](CC(N)=O)NC(=O)[C@@H]1CCCN1C(=O)[C@H](CO)NC(=O)[C@H](CO)NC(=O)[C@H](Cc1c[nH]cn1)NC(=O)[C@H](CCCNC(=N)N)NC(=O)[C@H](CC(C)C)NC(=O)[C@H](Cc1ccccc1)NC(=O)[C@H](CCC(=O)O)NC(=O)[C@H](C)NC(=O)[C@H](CC(C)C)NC(=O)[C@H](CCCNC(=N)N)NC(=O)[C@H](CCC(N)=O)NC(=O)[C@@H](NC(=O)[C@H](C)NC(=O)[C@@H]1CSSC[C@H](NC(=O)[C@@H](N)CCCCNC(=O)CC[C@H](NC(=O)CCCCCCCCCCCCCCCCCCC(=O)O)C(=O)O)C(=O)N[C@@H](CC(N)=O)C(=O)N[C@@H]([C@@H](C)O)C(=O)N[C@@H](C)C(=O)N[C@@H]([C@@H](C)O)C(=O)N1)[C@@H](C)O)C(=O)N1CCC[C@H]1C(=O)N[C@@H](CO)C(=O)N[C@@H](CO)C(=O)N[C@H](C(=O)N[C@@H](CC(N)=O)C(=O)N[C@H](C(=O)NCC(=O)N[C@@H](CO)C(=O)N[C@@H](CCCNC(=N)N)C(=O)N[C@H](C(=O)N[C@@H](Cc1ccc(O)cc1)C(N)=O)[C@@H](C)O)C(C)C)[C@@H](C)O
notes: also called compound 51
For the molecule B5, in test [1], the “Ratio hCT/hAmylin funct.” value is 14 and the “hAmylin-R funct. EC50” value was found to be 0.372 nM. In addition, the “hCTR funct. EC50” value in test [2] came to 5.22 nM. The IC50 in test [3] came to 0.828 nM.

One may read the IC50 as the midpoint of a concentration-inhibition curve.
